The values below come from the supplement of paper PMC7877785.

± gives the uncertainty stated by the source.

The nature of this series: self-splicing fitness, log relative to wild type (ln ratio); higher = more splicing; Tetrahymena group I intron in knt gene, E. coli kanamycin selection, DiMSum; sequences stand for … in CUCUCU…GGAGGGAAAAGUUAUCAGGCAUGCACCUGGUAGCUAGUCUUUAAACCAAUAGAUUGCAUCGGUUUAAAAGGCAAGACCGUCAAAUUGCGGGAAAGGGGUCAACAGCCGUUCAGUACCAAGUCUCAGGGGAAACUUUGAGAUGGCCUUGCAAAGGGUAUGGUAAUAAGCUGACGGACAUGGUCCUAACCACGCAGCCAAGUCCUAAGUCAACAGAUCUUCUGUUGAUAUGGAUGCAGUUCACAGACUAAAUGUCGGUCGGGGAAGAUGUAUUCUUCUCAUAAGAUAUAGUCGGACCUCUCCUUAAUGGGAGCUAGCGGAUGAAGUGAUGCAACACUGGAGCCGCUGGGAACUAAUUUGUAUGCGAAAGUAUAUUGAUUAGUUUUGGAGUACUCGUGGUCG
The gist of the method: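 Colonies from six replicate transformations of E. coli BL21(DE3) were pooled and amplicon-sequenced on an Illumina HiSeq 2500. The library placed an intron with all eight P1ex-region nucleotides randomised inside the knt kanamycin-resistance gene on pET-22b(+), and cells grew overnight at 37°C or 30°C on LB agar with or without 25 μg/mL kanamycin (plus 100 μg/mL carbenicillin, 50 μM IPTG, 0.2% rhamnose). Fitness is the DiMSum error-weighted combination of wild-type-normalised replicate fold changes, kanamycin versus none.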

Take UAUCAGCAAUAUUACGUGUG: the “self-splicing fitness (ln)” value runs as follows: (30 °C) -0.333 ± 0.058; (37 °C) 0.407 ± 0.076.
The like results for CGGCAGCAAUAUUACGCGGC were, in that order, -2.84 ± 0.27 and -3.03 ± 0.26.
On the same counts, the results for GAAUAGCAAUAUUACGCAGG are -2.6 ± 0.2 and -2.28 ± 0.21.
Take ACAGAGCAAUAUUACGGUAC: the “self-splicing fitness (ln)” value is -3.57 ± 0.2 (30 °C) and -3.02 ± 0.25 (37 °C).
Consider UGCUAGCAAUAUUACGUCCC, for which the “self-splicing fitness (ln)” value was -3.34 ± 0.18 (30 °C) and -0.521 ± 0.12 (37 °C).
On the same counts, the results for AAGGAGCAAUAUUACGAGGA are -3.21 ± 0.46 and -1.95 ± 0.38.
On the same counts, the results for UAAAAGCAAUAUUACGUAUC are -3.81 ± 0.35 and -2.07 ± 0.23.
As for AAGUAGCAAUAUUACGGGAA, the “self-splicing fitness (ln)” value runs as follows: (30 °C) -2.74 ± 0.2; (37 °C) -2.8 ± 0.23.
In the case of AUAAAGCAAUAUUACGGGUU, the “self-splicing fitness (ln)” value runs as follows: (30 °C) -2.17 ± 0.09; (37 °C) -1.17 ± 0.098.
On the same counts, the results for ACUGAGCAAUAUUACGUAUA are -2.58 ± 0.2 and -1.97 ± 0.25.
For the sequence GUUUAGCAAUAUUACGGCCC, the “self-splicing fitness (ln)” value (30 °C) is -1.66 ± 0.29.
Consider AUGUAGCAAUAUUACGCAUG, for which the “self-splicing fitness (ln)” value (30 °C) is -1.38 ± 0.095 and the “self-splicing fitness (ln)” value (37 °C) was -0.413 ± 0.12.
On the same counts, the results for AUUCAGCAAUAUUACGGAUU are -4.2 ± 0.22 and -2.21 ± 0.2.
With AUAGAGCAAUAUUACGUCCA, the “self-splicing fitness (ln)” value (30 °C) was -2.35 ± 0.21 and the “self-splicing fitness (ln)” value (37 °C) is -0.672 ± 0.2.
On the same counts, the results for UAAUAGCAAUAUUACGCACU are -1.16 ± 0.11 and -1.02 ± 0.12.
On to CCUUAGCAAUAUUACGAACG, for which the “self-splicing fitness (ln)” value runs as follows: (30 °C) -0.742 ± 0.18; (37 °C) -0.847 ± 0.25.
Consider AUAAAGCAAUAUUACGGAGC, for which the “self-splicing fitness (ln)” value is, setting by setting: (30 °C) -2.79 ± 0.2; (37 °C) -2.21 ± 0.22.
For CUGCAGCAAUAUUACGUGUC, the “self-splicing fitness (ln)” value (30 °C) was -4.46 ± 0.28 and the “self-splicing fitness (ln)” value (37 °C) was -2.79 ± 0.29.
The like results for UGUUAGCAAUAUUACGGAAG were, in that order, -3.18 ± 0.3 and -1.37 ± 0.17.
GUCCAGCAAUAUUACGCAGC: the “self-splicing fitness (ln)” value runs as follows: (30 °C) -0.998 ± 0.17; (37 °C) 0.198 ± 0.14.
The like results for UGGCAGCAAUAUUACGACCG were, in that order, -0.969 ± 0.27 and -0.245 ± 0.42.
With AGACAGCAAUAUUACGUCGG, the “self-splicing fitness (ln)” value reads like this: (30 °C) -2.44 ± 0.15; (37 °C) -0.528 ± 0.15.
For the sequence CUGUAGCAAUAUUACGUCCA, the “self-splicing fitness (ln)” value (37 °C) is -2.89 ± 0.48.
On to UGCUAGCAAUAUUACGACAC, for which the “self-splicing fitness (ln)” value by setting is: (30 °C) -3.83 ± 0.22; (37 °C) -2.11 ± 0.16.
The like results for UAUAAGCAAUAUUACGGUAG were, in that order, -1.59 ± 0.077 and -0.912 ± 0.095.
On the same counts, the results for AACGAGCAAUAUUACGGUUC are -2.87 ± 0.18 and -2.09 ± 0.19.
The like results for AGACAGCAAUAUUACGUAUA were, in that order, -2.54 ± 0.14 and -0.807 ± 0.13.
As to CCAGAGCAAUAUUACGCAUC, the “self-splicing fitness (ln)” value by setting is: (30 °C) -2.56 ± 0.28; (37 °C) -1.99 ± 0.31.
On the same counts, the results for GCCGAGCAAUAUUACGGUAU are -1.89 ± 0.13 and -0.878 ± 0.12.
On to AUGAAGCAAUAUUACGGAGG, for which the “self-splicing fitness (ln)” value is, setting by setting: (30 °C) -2.82 ± 0.12; (37 °C) -0.72 ± 0.12.
For the sequence GUUGAGCAAUAUUACGACUC, the “self-splicing fitness (ln)” value is 0.144 ± 0.2 (30 °C) and -0.535 ± 0.19 (37 °C).
The like results for UCACAGCAAUAUUACGCGAC were, in that order, -3.43 ± 0.21 and -2.51 ± 0.26.
On to AUUGAGCAAUAUUACGCUCA, for which, where the note is “37 °C”, the “self-splicing fitness (ln)” value is -1.62 ± 0.4.
In the case of CCGAAGCAAUAUUACGGUCU, the “self-splicing fitness (ln)” value by setting is: (30 °C) -2.93 ± 0.17; (37 °C) -3.23 ± 0.25.
The like results for CGUCAGCAAUAUUACGGGUA were, in that order, -1.81 ± 0.14 and -1.06 ± 0.1.
On the same counts, the results for UAGCAGCAAUAUUACGAGGU are -3.43 ± 0.15 and -1.7 ± 0.13.
UCUCAGCAAUAUUACGACGC: the “self-splicing fitness (ln)” value (37 °C) came out at 0.221 ± 0.23.
For AAGGAGCAAUAUUACGAAAG, where the note is “30 °C”, the “self-splicing fitness (ln)” value is -2.93 ± 0.21.
CCUAAGCAAUAUUACGAAGG: the “self-splicing fitness (ln)” value (30 °C) was -3.55 ± 0.16 and the “self-splicing fitness (ln)” value (37 °C) was -2.9 ± 0.2.
The like results for CUCCAGCAAUAUUACGAAUU were, in that order, -3.27 ± 0.18 and -2.18 ± 0.2.
The like results for GUAAAGCAAUAUUACGAAGG were, in that order, -3.13 ± 0.13 and -1.92 ± 0.17.
The like results for CACUAGCAAUAUUACGUGGG were, in that order, -3.99 ± 0.2 and -3.1 ± 0.22.
Consider CCACAGCAAUAUUACGUAGC, for which the “self-splicing fitness (ln)” value runs as follows: (30 °C) -4.48 ± 0.29; (37 °C) -2.7 ± 0.26.
Turning to AAGGAGCAAUAUUACGGUCG, where the note is “30 °C”, the “self-splicing fitness (ln)” value is -2.96 ± 0.22.
On to GCCCAGCAAUAUUACGCUUG, for which the “self-splicing fitness (ln)” value was -3.45 ± 0.2 (30 °C) and -1.79 ± 0.17 (37 °C).
The like results for GGGGAGCAAUAUUACGCUGA were, in that order, -3.2 ± 0.16 and -2.33 ± 0.2.
As for CUCAAGCAAUAUUACGGAAU, the “self-splicing fitness (ln)” value (30 °C) was -3.95 ± 0.26 and the “self-splicing fitness (ln)” value (37 °C) is -2.67 ± 0.22.
The like results for CAUCAGCAAUAUUACGCCUU were, in that order, -1.92 ± 0.12 and -0.379 ± 0.12.
On the same counts, the results for UUACAGCAAUAUUACGAGCG are -0.688 ± 0.088 and -0.631 ± 0.096.
The like results for CUGCAGCAAUAUUACGUGGA were, in that order, -2.92 ± 0.16 and -3.04 ± 0.2.
For the sequence GCGUAGCAAUAUUACGGCCU, the “self-splicing fitness (ln)” value is -0.557 ± 0.16 (30 °C) and -0.113 ± 0.25 (37 °C).
On the same counts, the results for CCACAGCAAUAUUACGUUAC are -3.16 ± 0.21 and -2.17 ± 0.17.
On the same counts, the results for UUCCAGCAAUAUUACGAGGG are -3.28 ± 0.15 and -1.28 ± 0.15.
On the same counts, the results for AGUGAGCAAUAUUACGUCCA are -2.89 ± 0.36 and -1 ± 0.27.
Regarding CACAAGCAAUAUUACGCCGG, the “self-splicing fitness (ln)” value (30 °C) was -0.875 ± 0.081 and the “self-splicing fitness (ln)” value (37 °C) is -0.35 ± 0.095.
The like results for GACAAGCAAUAUUACGCACG were, in that order, -2.2 ± 0.13 and -1.07 ± 0.17.
With AAACAGCAAUAUUACGGCGC, the “self-splicing fitness (ln)” value is -1.43 ± 0.11 (30 °C) and -0.594 ± 0.16 (37 °C).
For the sequence CGAGAGCAAUAUUACGCGCG, where the note is “30 °C”, the “self-splicing fitness (ln)” value was -1.64 ± 0.25.
Regarding AGUGAGCAAUAUUACGGUCA, the “self-splicing fitness (ln)” value (30 °C) was -2.16 ± 0.19 and the “self-splicing fitness (ln)” value (37 °C) was -0.354 ± 0.19.
As to CCCGAGCAAUAUUACGAGAU, the “self-splicing fitness (ln)” value is -3.49 ± 0.21 (30 °C) and -2.59 ± 0.3 (37 °C).
As for CCCCAGCAAUAUUACGACAU, the “self-splicing fitness (ln)” value is -3.936 ± 0.02 (30 °C) and -2.94 ± 0.037 (37 °C).
The like results for AUUCAGCAAUAUUACGCUCC were, in that order, -0.31 ± 0.073 and 0.274 ± 0.096.
